Source: publication PMC5345815

Molecular target: recombinant gp41 of HIV-1 (ectodomain, amino acids 533-684, from clone pNL4-3), secreted from 293 cells (HIV-1 (infectious molecular clone pNL4-3))
Assay: native gel or EMSA; Novex Native PAGE 4-20% Tris-Glycine gradient gel of purified gp41, Western blot with 2F5; single band below the 170 kDa marker

Substance: recombinant gp41 of HIV-1 (ectodomain, amino acids 533-684, from clone pNL4-3), secreted from 293 cells (domain or fragment)
- stoichiometry N: 3
